Experimental findings from publication PMC4497662, “Single Turnover Autophosphorylation Cycle of the PKA RIIβ Holoenzyme” (PLoS Biology, 2015) are described below.

As a reminder, the Kd is the equilibrium constant for the complex coming apart. Broadly, the koff is the first-order rate constant of dissociation. As a reminder, the kon is the second-order rate constant of association. Low values mean slow association, high ones fast association.

Data set [1] deals with T1, PKA catalytic subunit (isoform α), mouse (mouse, UniProt P05132 2-351). Description: crystal structure; apo RIIβ(1–416, R230K)2:C2 holoenzyme crystals soaked overnight with 5 mM CaCl2 and 1 mM ATP; 2.8 Å. Conditions: both partners purified.
Data set [2] concerns the molecule itself. The description is as above.
Data set [3] concerns the target T1, PKA catalytic subunit (isoform α), mouse. Kind of data set: SPR; GST-RIIβ 102–416 (nonphospho or phospho) captured on an anti-GST antibody CM5 chip (80–120 RU), C-subunit 0.3–200 nM injected; buffer A only (chelators EDTA/EGTA, no nucleotide or metal); global fit, 1:1 Langmuir. The settings on record: both partners purified. (In SPR one partner is held on a chip, and binding of the other changes the refractive index at the surface.)

The target is the same in data set [4]. Description: SPR; GST-RIIβ 102–416 (nonphospho, phospho or S112A) captured on an anti-GST antibody CM5 chip (80–120 RU), C-subunit injected; buffer A (20 mM MOPS, 150 mM NaCl, 100 μM EDTA, 100 μM EGTA, 0.01% P20) with 1 mM ATP and 10 mM MgCl2; global fit, 1:1 Langmuir; 25°C stated for the series of Fig 5. Conditions: both partners purified.
The target is the same in data set [5]. Kind of data set: SPR; GST-RIIβ 102–416 (nonphospho or phospho) captured on an anti-GST antibody CM5 chip (80–120 RU), C-subunit 0.3–200 nM injected; buffer A with 1 mM ADP and 10 mM MgCl2; global fit, 1:1 Langmuir. The settings on record: both partners purified.
For data set [6] the target is unchanged. Kind of data set: SPR; GST-RIIβ 102–416 wild type and S112A captured on an anti-GST antibody CM5 chip (80 RU), C-subunit 30–0.12 nM injected; buffer A with 1 mM ATP and 10 mM CaCl2; 30 μL/min, 25°C. Conditions: both partners purified.
For data set [7] the target is unchanged. Description: SPR; GST-RIIβ 102–416 (nonphospho, phospho or S112A) captured on an anti-GST antibody CM5 chip (80–120 RU), C-subunit injected; buffer A (20 mM MOPS, 150 mM NaCl, 100 μM EDTA, 100 μM EGTA, 0.01% P20) with 1 mM ATP and 10 mM MgCl2; global fit, 1:1 Langmuir; 25°C stated for the series of Fig 5. The settings on record: both partners purified. The source holds these as a separate data set.

B1: RIIβ(1–416, R230K), phosphorylated at Ser112 in the crystal (natural protein)
chain: not shown
modifications: phosphoserine at 112 (after the soak with CaATP)
notes: Two copies stand with two C-subunits in the RIIβ2:C2 holoenzyme; also called pRIIβ; RIIβ(R230K); source: E. coli BL21 (DE3), purified (cAMP resin, cGMP elution); holoenzyme crystals soaked with 5 mM CaCl2 and 1 mM ATP
For the molecule B1, the binding result in data set [1] and in data set [2] was “binds” in each case.

B2: GST-RIIβ 102–416 (nonphosphorylated, wild type) (domain or fragment, rat, UniProt P12369 102-416, looked up)
chain: PVINRFTRRASVCAEAYNPDEEEDDAESRIIHPKTDDQRNRLQEACKDILLFKNLDPEQMSQVLDAMFEKLVKEGEHVIDQGDDGDNFYVIDRGTFDIYVKCDGVGRCVGNYDNRGSFGELALMYNTPRAATITATSPGALWGLDRVTFRRIIVKNNAKKRKMYESFIESLPFLKSLEVSERLKVVDVIGTKVYNDGEQIIAQGDSADSFFIVESGEVRITMKRKGKSDIEENGAVEIARCLRGQYFGELALVTNKPRAASAHAIGTVKCLAMDVQAFERLLGPCMEIMKRNIATYEEQLVALFGTNMDIVEPTA
notes: also called nonphospho form of RIIβ; source: E. coli BL21 (DE3), purified (cAMP resin, cGMP elution); cyclic nucleotide-free
B2: the Kd in data set [3] came out at 0.39 nM; in data set [4], 0.14 nM; in data set [5] it was 0.24 nM. Further, the koff in data set [3] was 0.00021 s⁻¹; in data set [4] it was 0.0003 s⁻¹; in data set [5], 0.00015 s⁻¹; in data set [6], approximately 0.0001 s⁻¹. Further, the kon worked out at 530000 M⁻¹ s⁻¹ in data set [3], 2.1e+06 M⁻¹ s⁻¹ in data set [4] and 640000 M⁻¹ s⁻¹ in data set [5].

B3: phosphorylated GST-RIIβ 102–416 (pRIIβ) (domain or fragment, rat, UniProt P12369 102-416, looked up)
chain: PVINRFTRRASVCAEAYNPDEEEDDAESRIIHPKTDDQRNRLQEACKDILLFKNLDPEQMSQVLDAMFEKLVKEGEHVIDQGDDGDNFYVIDRGTFDIYVKCDGVGRCVGNYDNRGSFGELALMYNTPRAATITATSPGALWGLDRVTFRRIIVKNNAKKRKMYESFIESLPFLKSLEVSERLKVVDVIGTKVYNDGEQIIAQGDSADSFFIVESGEVRITMKRKGKSDIEENGAVEIARCLRGQYFGELALVTNKPRAASAHAIGTVKCLAMDVQAFERLLGPCMEIMKRNIATYEEQLVALFGTNMDIVEPTA
modifications: phosphoserine at 112
notes: source: E. coli BL21 (DE3), purified; phosphorylated in preformed holoenzyme with C-subunit and MgATP, C-subunit released on the chip with 500 nM cGMP
As for B3, in data set [3], the Kd amounted to 0.31 nM, the koff was 0.00011 s⁻¹ and the kon is 340000 M⁻¹ s⁻¹. Also, in data set [4], binding was characterised by a dissociation constant (Kd) of 7 nM, the off-rate (koff) is 0.00026 s⁻¹ and the kon was 38000 M⁻¹ s⁻¹. Besides, in data set [5], the Kd came to 0.22 nM, the koff amounted to 0.00012 s⁻¹ and the kon came to 550000 M⁻¹ s⁻¹.

B4: GST-RIIβ 102–416 S112A (domain or fragment, rat, UniProt P12369 102-416, looked up)
chain: PVINRFTRRAAVCAEAYNPDEEEDDAESRIIHPKTDDQRNRLQEACKDILLFKNLDPEQMSQVLDAMFEKLVKEGEHVIDQGDDGDNFYVIDRGTFDIYVKCDGVGRCVGNYDNRGSFGELALMYNTPRAATITATSPGALWGLDRVTFRRIIVKNNAKKRKMYESFIESLPFLKSLEVSERLKVVDVIGTKVYNDGEQIIAQGDSADSFFIVESGEVRITMKRKGKSDIEENGAVEIARCLRGQYFGELALVTNKPRAASAHAIGTVKCLAMDVQAFERLLGPCMEIMKRNIATYEEQLVALFGTNMDIVEPTA
notes: also called RIIβ(S112A); source: E. coli BL21 (DE3), purified (cAMP resin, cGMP elution); cyclic nucleotide-free
Turning to B4, the binding result in data set [7] is on record as “binds”.
